The values that follow come from US20250206841A1 (ADEPT THERAPEUTICS, published 2025).

In assay [1] the target is T1, human Trop-2 expressed on cell surface (human, UniProt P09758 27-323).
T1 construct: whole, on cells; also called cell surface Trop-2
T1 sequence (looked up): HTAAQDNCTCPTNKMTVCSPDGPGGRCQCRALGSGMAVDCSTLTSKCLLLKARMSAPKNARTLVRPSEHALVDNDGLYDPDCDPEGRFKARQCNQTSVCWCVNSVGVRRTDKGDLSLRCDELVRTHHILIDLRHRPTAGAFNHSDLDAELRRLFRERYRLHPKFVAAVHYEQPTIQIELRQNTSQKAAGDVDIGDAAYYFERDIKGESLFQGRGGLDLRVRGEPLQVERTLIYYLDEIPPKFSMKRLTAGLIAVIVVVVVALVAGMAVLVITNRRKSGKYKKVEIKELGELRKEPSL
The experiment in a line: flow cytometry, MCF-7 cells. Here is the method:
Cells were then resuspended in FACS buffer (1×DPBS/1% FBS) at 10⁶/ml concentration. One hundred microliter (100 μl) of cells were aliquoted into a single well in 96 well plates. The antibodies to be tested were serially diluted at 1:3 fold starting at 15 μg/mL and were then added into each well. The antibodies were mixed with cells and the mixtures were incubated on ice for 1 hour. After washing with FACS buffer, one hundred microliter (100 μl) of 1:400 diluted PE-conjugated anti-human Fc secondary antibody (Jackson Immuno Research) was added into each well and incubated for 30 minutes on ice. After washing with FACS buffer, stained cells were resuspended at diluted 7-ADD (Biolegend, used at 1:100 dilution) and analyzed on Guava 11HT or 5HT (Luminex). Data was analyzed using Flowjo software. EC₅₀ values were calculated using GraphPad Prism. Sacitnzurnab govitecan was used as positive control. Anti-HEL.hIgG1 was used as isotype negative control. Similar assay was performed using MCF-7 cells (known to express human Trop-2).
A general note: Flow cytometry measures light scatter and fluorescence of single cells or particles in a stream.

The target of another assay is T2, mouse Trop-2 (mouse, UniProt Q8BGV3 25-270, limits assumed).
T2 construct: also called Kactus Cat #TRP-MM121
T2 sequence (looked up): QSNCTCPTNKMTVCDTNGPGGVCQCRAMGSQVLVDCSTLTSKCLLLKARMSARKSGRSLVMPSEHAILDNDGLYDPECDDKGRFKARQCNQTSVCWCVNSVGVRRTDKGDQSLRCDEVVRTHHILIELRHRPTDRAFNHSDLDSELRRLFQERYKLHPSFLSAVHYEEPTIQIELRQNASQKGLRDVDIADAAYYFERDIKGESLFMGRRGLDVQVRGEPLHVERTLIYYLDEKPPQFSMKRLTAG
Kind of assay: ELISA, similar to Table 24.

The next assay deals with T3, human Trop-1 (EpCAM) (human, UniProt P16422 24-265, limits assumed).
T3 sequence (looked up): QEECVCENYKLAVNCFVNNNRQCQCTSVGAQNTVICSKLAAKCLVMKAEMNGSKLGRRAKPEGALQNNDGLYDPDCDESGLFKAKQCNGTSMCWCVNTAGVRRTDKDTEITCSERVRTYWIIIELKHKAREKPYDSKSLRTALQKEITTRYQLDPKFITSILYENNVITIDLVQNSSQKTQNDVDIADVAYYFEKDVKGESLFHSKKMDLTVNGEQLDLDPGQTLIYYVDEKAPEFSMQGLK
The experiment in a line: ELISA, similar to Table 24. (An ELISA detects its analyte on a solid surface through an enzyme-linked reagent.)

For the next assay, the target named is T4, human Trop-2-His protein (human, UniProt P09758 27-274).
T4 construct: extracellular domain; Assay paragraphs say only 'Trop-2-His'; also called hTrop-2; Kactus Cat #TRP-HM121; not shown: His tag
T4 sequence (looked up): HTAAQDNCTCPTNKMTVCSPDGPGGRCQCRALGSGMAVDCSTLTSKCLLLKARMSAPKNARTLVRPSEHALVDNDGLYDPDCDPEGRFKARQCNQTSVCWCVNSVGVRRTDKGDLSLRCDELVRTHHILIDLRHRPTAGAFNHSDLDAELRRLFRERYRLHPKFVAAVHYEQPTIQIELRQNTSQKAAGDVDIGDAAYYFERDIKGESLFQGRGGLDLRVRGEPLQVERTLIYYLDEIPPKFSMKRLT
The experiment in a line: ELISA, coated Trop-2 protein. Here is the method:
(§1) Purified antibodies were tested by ELISA to confirm their binding and affinity against human and cynomolgus Trop-2-His protein. Briefly, 96-well Maxisorp plates (Nunc) were coated with 100 μl/well of 0.5 μg/ml human (Kactus Cat #TRP-HM121, or Sino Biological, Cat #10428-HO8H) or cynomolgus Trop-2 protein (Kactus Cat #TRP-CM121, or Sino Biological, Cat #90893-CO8H) diluted in 1×PBS (GIBCO) overnight at 4° C. Plates were washed four times with 300 μl/well washing buffer (1×PBST, diluted from 20×PBST (Thermo Scientific) with distilled water)) and then blocked with 300 μl/well of blocking buffer (1×PBST/3% BSA (BSA, Sigma)) for 2 hours at RT on plate shaker at 100 rpm. Plates were washed and added with 100 μl/well of testing antibodies, which were serial diluted with assay buffer (PBST/1% BSA). The antibodies were incubated at room temperature for 2 hours on plate shaker at 100 rpm. Plates were washed. One hundred microliters (100 μl) of 1:10,000 diluted horseradish peroxidase (HRP) conjugated anti-hIgG antibody (Jackson Immuno Research) was added into each well and incubated at room temperature for 1 hour on plate shaker at 100 rpm. Plates were washed and added with 100 μl/well TMB substrate for color development in dark at room temperature for up to 10 minutes. After addition of 50 μl/well of stop solution (1N H₂SO₄), plates were read at 450 nm on a plate reader (SpectraMax M5). EC₅₀ values were calculated using Graphpad Prism. Sacituzumab govitecan, was used as positive control. Anti-HEL.hIgG1 was used as isotype control.

In assay [2] the target is T5, cynomolgus Trop-2-His protein (cynomolgus, UniProt P09758 27-274 (human entry)).
T5 construct: also called cynmolgus Trop-His; Kactus Cat #TRP-CM121; not shown: His tag
T5 chain: T4 sequence (looked up) with M36V, S67N, G139S, I204V
Kind of assay: ELISA, coated Trop-2 protein. The protocol:
as §1

Where a chain is given by its changes, count along the chain named.

B1: 5D4 (antibody, V domains shown)
VH: QQLEESGGGLVKPEGSLTLTCKGSGFDFSGTYWMWWVRQAPGKGLEWIACIYVGSGSSTYYASWAKGRFTISSTSSTAVTLQATSLTAADTATYFCARGATNNVFMNYFNLWGPGTLVTVSS
VL: FEMTQTPSSVSEPVGGTVTIKCQASEDISSNLGWYQQKPGQPPKLLIYGASTLASGVPSRFKGSGSGTEFTLTISDLECADAATYYCQTSYYIDDGVNGFGGGTEVVVK
notes: Rabbit-derived clone; LEM construct: VH + rabbit IgG CH1 + human IgG1 CH2-CH3
Broadly, the EC50 is the midpoint of the concentration-response curve. A high value points to a need for much substance. Turning to B1, the concentration giving a half-maximal response (EC50) worked out at 1200 pM in assay [1], 16 pM with human Trop-2-His protein and 14 pM in assay [2]. Moreover, the binding result with mouse Trop-2 and in the assay with human Trop-1 (EpCAM) was “no binding” in each case.

B2: 5D4-1 (antibody, V domains shown)
VH: B1 VH with C50P
VL: B1 VL with C79P
In the case of B2, the figures for the EC50 (in assay [1]; in the assay with human Trop-2-His protein; in assay [2]) were 1000 pM, 18 pM and 23 pM, respectively. Moreover, the binding result in the assay with mouse Trop-2 and with human Trop-1 (EpCAM) was “no binding” throughout.

B3: 5D4-2 (antibody, V domains shown)
VH: B1 VH with C50S
VL: B1 VL with C79A
Take B3: the EC50 in assay [1] worked out at 800 pM; with human Trop-2-His protein it was 15 pM; in assay [2], 18 pM. In addition, the binding result with mouse Trop-2 and with human Trop-1 (EpCAM) was “no binding” in each case.

B4: 63H3 (antibody, V domains shown)
VH: QEQLKESGGGLVQPGGSLKLSCKASGFDFNSYGVSWVRQAPGKGLEWIAYIYPAFHNAYYANWVNGRFTISSDNAQNTVDLQLNSLTAADTATYFCARDAGGTDYNYNLWGPGTLVTVSS
VL: DVVMTQTPASVEVAVGGTVTLKCQASEDIESYSAWYQQKPGQPPNLLIYEASKLASGVSSRFSGSGYGTEFTLTISGVECADAATYYCQQALTIGNVDNPFGGGSEVVVR
notes: as for B1
On to B4, for which the EC50 in assay [1] was 600 pM; with human Trop-2-His protein it was 29 pM; in assay [2], 33 pM. Moreover, the binding result in the assay with mouse Trop-2 and with human Trop-1 (EpCAM) was “no binding” each time.

B5: 66A1 (antibody, V domains shown)
VH: B4 VH with S31N, A58T, N62S, D73H, V79L, D80Y, N106A
VL: DVVMTQTPASVEAAVGGTVSINCQASEDIESYLAWYQQKPGQPPKLLIYKASTLASGVSSRFKGSGSGKQFTLTISGVECADAATYYCQQVLTIGNVDNPFGGGSEVVVK
notes: as for B1
B5: the EC50 stood at 600 pM in assay [1], 13 pM with human Trop-2-His protein and 14 pM in assay [2]. Also, the binding result with mouse Trop-2 and with human Trop-1 (EpCAM) was “no binding” throughout.

B6: 65D5 (antibody, V domains shown)
VH: B4 VH with S31A, A58T, N62T, D73H, V79L, D80Y, S85T, G102T, Y107F
VL: DIVMTQTPASVSEPVGGTVTIKCQASQSISSYLAWYQQKPGQPPKLLIYEATKLTSGVSSRFSGSGYGTEFTLTISGVECADAATYYCQQALTVGDVDNPFGGGSEVVVK
notes: as for B1
As to B6, the EC50 in assay [1] was found to be 800 pM; with human Trop-2-His protein it was 19 pM; in assay [2] it was 15 pM. For the same molecule, the binding result with mouse Trop-2 and in the assay with human Trop-1 (EpCAM) was “no binding” each time.
